The results in this text go back to PMC2978346.

This series concerns the target His6-PfSSB (Plasmodium falciparum 3D7, UniProt Q8I415 77-284). The series is described as follows: EMSA.

B1: 70-mer ssDNA oligonucleotide (ssDNA)
DNA: CTGCCACACACCACCAAAGCTAACTGACAGGAGAATCCAGATGGATCATTTAAAGCATTTGCAACAATTG
Regarding B1, the binding result was “binds”.
